Consider two molecules from article PMC12514038 (2025).

Usually Kd stands for a measure of binding affinity in units of concentration. Broadly, the koff is a measure of how fast the partners let go of each other. High values mean fast dissociation, low ones slow dissociation.

Holding throughout (test): SPR
A general note: In SPR one partner is held on a chip, and binding of the other changes the refractive index at the surface.

Assay [1] concerns the target T1, VACV , residues A3-G181 (vaccinia virus (VACV), UniProt P07612 3-181).
For assay [2], the target named is T2, MPXV [change], residues A3-G181, C-terminal 6×His tag (pCAGGS, Expi293F) (mpox virus (MPXV)).
The target in assay [3] is T1, VACV , residues A3-G181. This is another data set of the same source.
For assay [4], the target named is T1, VACV , residues A3-G181. This is another data set of the same source.
Assay [5] deals with T2, MPXV [change], residues A3-G181, …. The source holds these as a separate data set.

Read-outs that look alike come from different tables or passages of the source.

B1: hmMM1-40, humanized mMM1-40 monoclonal antibody (antibody, V domains shown)
VH: QVQLVQSGAEVKKPGASVKVSCKASGYIFTRYWMHWVRQAPGQGLEWMGYINPSTGYTEYNQKFKDRVTMTRDTSTSTVYMELSSLRSEDTAVYYCARSDYTNYVFEYWGQGTLVTVSS
VL: DVVMTQSPLSLPVTLGQPASISCRSSQSLVHSNGNTYLHWFQQRPGQSPRRLIYKVSNRFSGVPDRFSGSGSGTDFTLKISRVEAEDVGVYYCSQSTHVPYTFGGGTKVEIK
B1: the Kd in the assay with VACV , residues A3-G181 [1] is 0.47 nM; in assay [2], 0.48 nM. This molecule also registered a koff with VACV , residues A3-G181 [3] of 6.19e-05 s⁻¹.

B2: mMM1-16 monoclonal antibody (mouse variable regions, human IgG1/Igκ constant regions) (antibody, V domains shown)
VH: QIQLQQSGAELARPGASVKLSCKASGYTFITYWIQWVKQRPGQGLEWIGAIYPGDGDTRYTQKFKAKATLTADKSSSTAYMQLSTLTSEDSAVYFCAKGDTYPAAMDYWGQGTSVTVSS
VL: DIQMTQSPASLSASVGETVTITCRTSGNIHNYLAWYQQKQGRSPQLLVNNAKTLADGVPSRFSGSGSGTQYSLKINSLQPEDIGSYYCQHFWITPYTFGGGTKLEIK
Regarding B2, the Kd was 0.72 nM in the assay with VACV , residues A3-G181 [4] and 6.3 nM in assay [5].
